These results are taken from patent US20150284436A1 (published 2015).

For data set [1], the target named is T1, TRX(C73A), tag-free, co-expressed in complex (human, UniProt P10599 1-105).
T1 construct: Used in complex with T-TXNIP(C36S/C49S/C120S/C170S/C205S/C267S) to avoid TRX dimerization
T1 chain: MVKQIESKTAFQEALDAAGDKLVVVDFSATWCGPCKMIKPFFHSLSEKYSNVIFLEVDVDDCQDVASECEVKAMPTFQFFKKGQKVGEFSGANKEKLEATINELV
Nature of the data set: purified co-expressed complex, gel filtration before and after ROS treatment. As for the experimental part:
In detail, the TRX-T-TXNIP(C120S/C170S/C205S/C267S) complex was incubated with H₂O₂ at 37° C. for 30 minutes (a). The TRX(C73A)-T-TXNIP(C36S/C49S/C120S/C170S/C205S/C267S) complex was incubated with diamide at 37° C. for 30 minutes. The reaction products were injected onto a HiLoad™ 16/60 Superdex™ 75 gel filtration column at room temperature (b). The TRX Cys35 residue is essential for dissociation between TRX and TXNIP. The TRX(C35A)-T-TXNIP(C120S/C170S/C205S/C267S) complex was incubated with diamide at 37° C. for 60 minutes and the reaction products were injected onto the Superdex™ 75 10/300 GL gel filtration column (c). Eluted T-TXNIP and TRX after the ROS treatments are indicated for each reaction. All eluted proteins were analyzed by SDS-PAGE;
The TRX and T-TXNIP(C120S/C170S/C205S/C267S) complex was used to circumvent non-functional cysteine-induced aggregation. The complex (at a concentration of 0.05 mM) was incubated with H₂O₂ at concentrations in the range of 0 to 10 mM in 50 mM Tris-HCl (pH 8.0), 500 mM NaCl, and 10% glycerol at 37° C. The TRX([…]) and T-TXNIP(C36S/C49S/C120S/C170S/C205S/C267S) complex was also used to avoid TRX dimerization and non-functional cysteine-induced aggregation. This complex was incubated with 0 to 3 mM diamide in 50 mM Tris-HCl (pH 8.0), 500 mM NaCl, and 10% glycerol at 37° C. […]
In general terms: SEC sorts molecules by how far they enter the pores of the column.

Data set [2] concerns the molecule itself. As to the kind of experiment: non-reducing SDS-PAGE after air oxidation. As to the method: TRX(C73)-T-TXNIP(C36S/C49S/C120S/C170S/C205S/C267S) complex was incubated with 100 mM DTT and subjected to size exclusion chromatography to isolate T-TXNIP(C36S/C49S/C120S/C170S/C205S/C267S) from remained protein complex and TRX. The fractions containing T-TXNIP(C36S/C49S/C120S/C170S/C205S/C267S) were collected and dialyzed against 50 mM Tris-HCl (pH 8.0), 500 mM NaCl and 10% glycerol to induce the formation of disulfide bonds between TXNIP molecules;
For analysis by mass spectrometry in vitro, purified TRX(C73A)-T-TXNIP(C36S/C49S/C120S/C170S/C205S/C267S) complex was incubated with 100 mM DTT for 1 hour at room temperature and injected to the Superdex™ 200 10/300 GL gel filtration column installed on an AKTA purifier FPLC system to obtain T-TXNIP(C36S/C49S/C120S/C170S/C205S/C267S) from remained protein complex and TRX(C73 Å). The fractions containing T-TXNIP(C36S/C49S/C120S/C170S/C205S/C267S) were dialyzed against 50 mM Tris-HCl (pH 8.0), 500 mM NaCl and 10% glycerol to induce the formation of disulfide bonds between TXNIP molecules through air oxidation. Dialyzed proteins were then subjected to SDS-PAGE under non-reducing conditions.

Data set [3] addresses T2, FLAG-tagged TXNIP with Cys63 substituted with serine (human, UniProt Q9H3M7 1-391).
T2 chain: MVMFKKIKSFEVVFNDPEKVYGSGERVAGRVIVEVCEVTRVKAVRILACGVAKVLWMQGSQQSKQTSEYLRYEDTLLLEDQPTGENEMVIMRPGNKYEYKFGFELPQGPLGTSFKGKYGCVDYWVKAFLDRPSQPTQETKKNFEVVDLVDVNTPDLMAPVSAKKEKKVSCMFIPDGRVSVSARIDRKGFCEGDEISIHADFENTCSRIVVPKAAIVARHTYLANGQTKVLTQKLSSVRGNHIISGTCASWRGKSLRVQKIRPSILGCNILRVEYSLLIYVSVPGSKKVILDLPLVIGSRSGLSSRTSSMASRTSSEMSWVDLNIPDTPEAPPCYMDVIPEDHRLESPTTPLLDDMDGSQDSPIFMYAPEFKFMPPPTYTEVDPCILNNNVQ
As to the kind of experiment: GST pull-down / co-IP from 293T lysates, Western blot. As for the experimental part: (§1) Coimmunoprecipitation assays were performed using lysates from 293T cells transfected with combinations of FLAG-tagged or HA-tagged TXNIP plasmids and GST-tagged or FLAG-tagged TXNIP plasmids. Immobilized proteins on FLAG-agarose beads or glutathione beads were visualized by Western blot analysis using anti-HA, anti-FLAG, or anti-GST antibodies. One percent of WCL was used as the input;
(§2) To test the in vivo interprotomer interaction between TXNIP molecules, HEK 293T cells were transfected with plasmids expressing HA-tagged-TXNIP and FLAG-tagged T-TXNIP. 24 hours later, the cells were harvested and lysed in the 50 mM iodoacetamide-containing buffer [0.5% Triton X-100, 150 mM NaCl, 10% glycerol, 1 mM NaF, 1 mM AEBSF, 2 μg/mL leupeptin, 5 μg/mL aprotinin and 20 mM HEPES (pH 7.2)]. After centrifugation at 16,000 rpm for 20 minutes, the supernatant was incubated with anti-FLAG M2 agarose (Sigma) at 4° C. for 12 hours. The immobilized proteins were collected by centrifugation and washed three times with the lysis buffer. The bound proteins were subjected to SDS-PAGE under reduced and non-reduced conditions. […] 24 hours later, the cells were harvested and lysed in the lysis buffer. […]
(Immunoblotting shows a protein as a band on a membrane.)

Data set [4] deals with T3, FLAG-tagged TXNIP with Cys247 substituted with serine (human, UniProt Q9H3M7 1-391).
T3 chain: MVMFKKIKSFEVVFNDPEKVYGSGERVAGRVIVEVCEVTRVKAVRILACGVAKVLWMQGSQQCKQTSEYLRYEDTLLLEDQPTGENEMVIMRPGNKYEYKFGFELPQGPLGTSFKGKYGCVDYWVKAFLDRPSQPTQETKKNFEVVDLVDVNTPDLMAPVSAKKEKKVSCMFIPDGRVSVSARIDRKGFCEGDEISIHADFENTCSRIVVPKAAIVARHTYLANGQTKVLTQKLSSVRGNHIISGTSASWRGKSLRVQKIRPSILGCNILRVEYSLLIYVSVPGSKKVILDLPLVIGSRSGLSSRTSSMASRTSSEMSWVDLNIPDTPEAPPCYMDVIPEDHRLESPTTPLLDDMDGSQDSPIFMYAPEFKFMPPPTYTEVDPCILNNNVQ
The description is as above. As to the method:
as §1, §2

Data set [5] concerns the target T4, N-TXNIP (N-terminal domain of TXNIP, residues 3-156) (human, UniProt Q9H3M7 3-156).
T4 construct: The NMR sample was 15N-labeled and its hexahistidine-tag was removed by rTEV; In the Ni-NTA co-purification it carried the N-terminal hexahistidine-tag; also called N-terminal TXNIP; ^15N-labeled N-TXNIP
T4 chain: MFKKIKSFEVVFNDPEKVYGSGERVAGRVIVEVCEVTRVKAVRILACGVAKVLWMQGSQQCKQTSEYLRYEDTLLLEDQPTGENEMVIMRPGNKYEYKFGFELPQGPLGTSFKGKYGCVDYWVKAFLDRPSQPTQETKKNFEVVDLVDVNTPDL
Nature of the data set: 1H-15N HSQC NMR. As for the experimental part:
NMR interaction experiments were carried out by recording ¹H-¹⁵N NMR HSQC spectra of ¹⁵N-labeled N-TXNIP upon addition of unlabeled TRX or its mutant, which was reduced with 5 mM DTT and dialyzed against 50 mM potassium phosphate (pH 6.6) prior to the interaction study to remove excess DTT.
The ¹H-¹⁵N HSQC spectra of all proteins were measured on a Bruker 900 MHz NMR spectrometer at the Korea Basic Science Institute (Ochang, Korea). The NMR measurements were performed using 0.3 mM ¹⁵N-labeled protein in 50 mM potassium phosphate (pH 6.6) containing 10% D₂O at 25° C. All NMR spectra were processed with Topspin 2.1 and analyzed with the program SPARKY 3.1.
Further, TRX muteins were added and ¹H-¹⁵N HSQC spectra of ¹⁵N-labeled N-TXNIP were monitored to examine interaction between N-TXNIP and TRX. […] In contrast, C62A, C69A, and C73A mutants caused a chemical shift similar to the wild-type TRX (FIG. 12).

B1: T-TXNIP(C36S/C49S/C120S/C170S/C205S/C267S) (other)
chain: MFKKIKSFEVVFNDPEKVYGSGERVAGRVIVEVSEVTRVKAVRILASGVAKVLWMQGSQQCKQTSEYLRYEDTLLLEDQPTGENEMVIMRPGNKYEYKFGFELPQGPLGTSFKGKYGSVDYWVKAFLDRPSQPTQETKKNFEVVDLVDVNTPDLMAPVSAKKEKKVSSMFIPDGRVSVSARIDRKGFCEGDEISIHADFENTSSRIVVPKAAIVARHTYLANGQTKVLTQKLSSVRGNHIISGTCASWRGKSLRVQKIRPSILGSNILRVEYSLLIYVSVPGSKKVILDLPLVIGSRSGLSSRTSSMASRTSSEM
notes: 1 residues 3-317 (T-TXNIP) with the six printed substitutions; also called monomeric T-TXNIP mutant
As for B1, the binding result in data set [1] and in data set [2] was “binds” each time.

B2: GST-fused TXNIP with Cys63 substituted with serine (other)
chain: MVMFKKIKSFEVVFNDPEKVYGSGERVAGRVIVEVCEVTRVKAVRILACGVAKVLWMQGSQQSKQTSEYLRYEDTLLLEDQPTGENEMVIMRPGNKYEYKFGFELPQGPLGTSFKGKYGCVDYWVKAFLDRPSQPTQETKKNFEVVDLVDVNTPDLMAPVSAKKEKKVSCMFIPDGRVSVSARIDRKGFCEGDEISIHADFENTCSRIVVPKAAIVARHTYLANGQTKVLTQKLSSVRGNHIISGTCASWRGKSLRVQKIRPSILGCNILRVEYSLLIYVSVPGSKKVILDLPLVIGSRSGLSSRTSSMASRTSSEMSWVDLNIPDTPEAPPCYMDVIPEDHRLESPTTPLLDDMDGSQDSPIFMYAPEFKFMPPPTYTEVDPCILNNNVQ
B2: the binding result in data set [3] is listed as “no binding”.

B3: GST-fused TXNIP with Cys247 substituted with serine (other)
chain: MVMFKKIKSFEVVFNDPEKVYGSGERVAGRVIVEVCEVTRVKAVRILACGVAKVLWMQGSQQCKQTSEYLRYEDTLLLEDQPTGENEMVIMRPGNKYEYKFGFELPQGPLGTSFKGKYGCVDYWVKAFLDRPSQPTQETKKNFEVVDLVDVNTPDLMAPVSAKKEKKVSCMFIPDGRVSVSARIDRKGFCEGDEISIHADFENTCSRIVVPKAAIVARHTYLANGQTKVLTQKLSSVRGNHIISGTSASWRGKSLRVQKIRPSILGCNILRVEYSLLIYVSVPGSKKVILDLPLVIGSRSGLSSRTSSMASRTSSEMSWVDLNIPDTPEAPPCYMDVIPEDHRLESPTTPLLDDMDGSQDSPIFMYAPEFKFMPPPTYTEVDPCILNNNVQ
Take B3: in data set [4], the binding result is given as “no binding”.

B4: TRX C32A mutant (NMR sample) (enzyme)
chain: MVKQIESKTAFQEALDAAGDKLVVVDFSATWAGPCKMIKPFFHSLSEKYSNVIFLEVDVDDCQDVASECEVKCMPTFQFFKKGQKVGEFSGANKEKLEATINELV
notes: not shown: C-terminal hexahistidine-tag from pET21 vector
Consider B4, for which, in data set [5], the binding result is listed as “no binding”.
